The binders below were run against H-2 D^b (mouse; human), P61769.

Binder | IC50 [nM]
FSLGVLGM (modifications not checked) [NS2A8-15] | 1800
VAVSFVTLI (modifications not checked) [NS2A36-44] | 997
LAVTIMAIL (modifications not checked) [NS2A145-153] | 644
TAIANQATV (modifications not checked) [NS4B66-74] | 1.3
YSQVNPITL (modifications not checked) [NS4B99-107] | 1.3
RMLINRFTM (modifications not checked) [NS5237-45] | 21
GMLQGRGPL (modifications not checked) [C36-44] | 820
VAFLRFLTI (modifications not checked) [C51-59] | 1380
RALIFILL (modifications not checked) [M60-67] | > 2000

These binders were tested against H-2 K^b (mouse; human), P61769.

Binder | IC50 [nM]
MTMRCIGI (modifications not checked) [E-2-6] | 1080
VSWTMKIL (modifications not checked) [E451-458] | 458
VAVSFVTLI (modifications not checked) [NS2A36-44] | 12
LAVTIMAIL (modifications not checked) [NS2A145-153] | > 2000
TAIANQATV (modifications not checked) [NS4B66-74] | > 2000
YSQVNPITL (modifications not checked) [NS4B99-107] | 1890
RMLINRFTM (modifications not checked) [NS5237-45] | > 2000
GMLQGRGPL (modifications not checked) [C36-44] | 1340
VAFLRFLTI (modifications not checked) [C51-59] | 20
RALIFILL (modifications not checked) [M60-67] | 22

Reference: patent US20110150914A1, “COMPOSITIONS AND METHODS FOR DENGUE VIRUS (DV) TREATMENT AND VACCINATION” (priority 2008, published 2011)
